Results from patent publication US20110123508A1, “INSTRUMENT CLEANER” (NOVAPHARM RESEARCH (AUSTRALIA) PTY. LTD., priority 2008, published 2011).

How the values were obtained:
[1] = test system: Staphylococcus aureus (ATCC 6538); assay: Challenge test of 1:100 diluted cleaners with organic load, Staphylococcus aureus; conditions: cleaner diluted 1:100, organic load, 40±1° C.
[2] = test system: Pseudomonas aeruginosa ATCC15442; assay: Challenge test of 1:100 diluted cleaners with organic load, Pseudomonas aeruginosa
[3] = test system: Streptococcus mutan; assay: Challenge test of 1:100 diluted cleaners with organic load, Streptococcus mutan; conditions: cleaner diluted 1:100, organic load, 40±1° C.

B1: Subtilisin Savinase 16L (protein, UniProt P29600 1-269, looked up)
Subtilisin Savinase: AQSVPWGISRVQAPAAHNRGLTGSGVKVAVLDTGISTHPDLNIRGGASFVPGEPSTQDGNGHGTHVAGTIAALNNSIGVLGVAPSAELYAVKVLGASGSGSVSSIAQGLEWAGNNGMHVANLSLGSPSPSATLEQAVNSATSRGVLVVAASGNSGAGSISYPARYANAMAVGATDQNNNRASFSQYGAGLDIVAPGVNVQSTYPGSTYASLNGTSMATPHVAGAAALVKQKNPSWSNVQIRNHLKNTATSLGSTNLYGSGLVNAEAATR
[1]; 0 hrs (initial)
  Concentration CFU/ml after time, 0 hrs: 4.21E+07 CFU/ml
[1]; 1 hr
  Concentration CFU/ml after time, 1 hr: 1.58E+08 CFU/ml
[1]; 4 hrs
  Concentration CFU/ml after time, 4 hrs: 1.26E+08 CFU/ml
[1]; 6 hrs
  Concentration CFU/ml after time, 6 hrs: 2.00E+08 CFU/ml
[1]; 24 hrs
  Concentration CFU/ml after time, 24 hrs: 7.94E+07 CFU/ml
[2]; 0 hrs (initial), cleaner diluted 1:100, organic load, 40±1° C.
  Concentration CFU/ml after time, 0 hrs: 2.94E+06 CFU/ml
[2]; 1 hr, cleaner diluted 1:100, organic load, 40±1° C.
  Concentration CFU/ml after time, 1 hr: 3.69E+08 CFU/ml
[2]; 4 hr, cleaner diluted 1:100, organic load, 40±1° C.
  Concentration CFU/ml after time, 4 hr: 2.06E+09 CFU/ml
[2]; 6 hrs, cleaner diluted 1:100, organic load, 40±1° C.
  Concentration CFU/ml after time, 6 hrs: 3.80E+09 CFU/ml
[2]; 24 hrs, cleaner diluted 1:100, organic load, 40±1° C.
  Concentration CFU/ml after time, 24 hrs: 1.46E+11 CFU/ml
[2]; protease or phenoxyethanol alone at the concentrations of diluted A and B
  reduction of microorganisms by single component alone: Neither the protease nor the phenoxyethanol alone at these concentrations achieved a reduction
[3]; 0 hrs (initial)
  Concentration CFU/ml after time, 0 hrs: 1.40E+07 CFU/ml
[3]; 1 hr
  Concentration CFU/ml after time, 1 hr: 3.65E+07 CFU/ml
[3]; 4 hrs
  Concentration CFU/ml after time, 4 hrs: 2.00E+06 CFU/ml
[3]; 6 hrs
  Concentration CFU/ml after time, 6 hrs: 1.60E+06 CFU/ml
[3]; 24 hrs
  Concentration CFU/ml after time, 24 hrs: 1.16E+06 CFU/ml
